According to the supplement of paper PMC12764529:
± gives the half width of the 95% confidence interval.

What was measured:
[1] = folding stability dG unfold from trypsin proteolysis; higher = more stable
Outline: (§1)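 Designed mini-proteins with no cysteine and under 80 residues were kept only if AlphaFold2 dimer inter-PAE was above 15. In a PA-tagged cDNA display construct, they were digested with trypsin and chymotrypsin and then sequenced. K50 was inferred by Bayesian fitting of counts, and unfolding free energy was derived per protease or combined against a sequence-predicted unfolded-state K50 and a shared folded-state K50.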

[2] = folding stability dG unfold (combined trypsin and chymotrypsin); higher = more stable
Outline: as §1

[3] = folding stability dG unfold from chymotrypsin proteolysis; higher = more stable
Outline: as §1

Row | Sequence | folding stability dG unfold [1] [kcal/mol] | folding stability dG unfold [2] [kcal/mol] | folding stability dG unfold [3] [kcal/mol]
1 | SAGGSAGGSAGGSWLVRIPGHPIIFKGPEDQAEGIARELQKNGKPIEIEIIDPDEMKKFSAGGSAGGSAGGS [r4_131_TrROS] | 0.286 ± 0.12 | 0.643 ± 0.23 | 1.12 ± 0.14
2 | SAGGSAGGSAGGMEFKPGQEIEIVLKDENGRLIVIKAKVKKVDGKLVIEIEEAYELDDLSAGGSAGGSAGGS [r10_744_TrROS_Hall] | 2.34 ± 0.12 | 2.05 ± 0.26 | 2 ± 0.14
3 | SAGGSAGGSKPIKTKATIPLPNGKTITADVEIVVLPDGNILLRVPSGKVILVPPNYPVTFEDASAGGSAGGS [r20_227_TrMRF] | 1.71 ± 0.025 | 1.67 ± 0.036 | 1.62 ± 0.021
4 | SAGKKVVIIEIEEVTNEDGEKEYKIRVLVKDEETGEVTEREITVKEGESIEDLIKKALEEGADEVIIVPSAG [r5_37_TrROS_Hall] | 3.98 ± 0.13 | 4.12 ± 0.25 | 4.15 ± 0.14
5 | SAGGSAGGSAGIWIPIKDPKEAVDYIQEWFHKKGGYDINIEPTEVYPDGWVRVEINIEPKSAGGSAGGSAGG [r17_430_TrROS] | 0.151 ± 0.1 | 1.06 ± 0.26 | 1.26 ± 0.18
6 | SAGGSAGGSAMDAEEIADMIKEILRKQFPNVKITEITVERRPPGNYYVEARVPDGNQRTIPISAGGSAGGSA [r18_423_TrROS] | -0.483 ± 0.15 | 0.115 ± 0.061 | 0.286 ± 0.059
7 | SAGGSASVSDVTTTTVTVTVEVTEDPATGLQRLTATHPDLSFERLVPAGTIPADTTVTLDVTVTTGSAGGSA [r15_190_JUSTAS] | 0.0934 ± 0.028 | 0.322 ± 0.046 | 0.452 ± 0.014
8 | SAGAKVEIEFEGNKVTAKIEFGEGTVTVEGEVKLLPDGSALFKPKIYKDGKKIGEFTVLLDLPEGAEVLSAG [r5_221_TrMRF] | 1.37 ± 0.062 | 1.84 ± 0.16 | 1.95 ± 0.057
9 | SAGGSAGGSMEVNLKVTVTYPDGTVVELEIPKVSTEDGKSVEDVAKEIEALPDVKEVEVEIVESAGGSAGGS [r12_199_JUSTAS] | 0.847 ± 0.13 | 1.55 ± 0.27 | 2.03 ± 0.1
10 | SKKIKIILRYPDGWYVKAEMEVPNGKERDIWFPNPEEAIEWAKTIARQFNPGVEIEDIETVPPDDLPPNFSA [r9_137_TrROS] | 1.21 ± 0.084 | 1.61 ± 0.23 | 1.86 ± 0.077
11 | SAGMLDVPDDAEITVLVSLEKVPLPGDSSERVLAGVVKLKVKTLPNGEQVIESAEIKIVSAEELKKAGLSAG [r5_340_TrMRF] | 1.34 ± 0.038 | 1.43 ± 0.17 | 1.6 ± 0.099
12 | SVTVDEIAEWFANSFQQHGMKDVKVDVTVEPDPKNGRVRVDVQIRMTYPNPDGEKHRFEMTIPVEIPPNDSA [r9_440_TrROS] | 1.93 ± 0.051 | 1.99 ± 0.12 | 1.93 ± 0.075
13 | SAGGSAGGSAGGTAEEIKEAIEELGYKVEVEVTDDAVKIRLELPNGEKFEFEIPKEALESAGGSAGGSAGGS [r10_1029_TrMRF] | 2.3 ± 0.22 | 1.99 ± 0.16 | 1.92 ± 0.11
14 | SASPDETVILEKVLPPSASPEEVEKEREEIREKLESLGAKVEVTIEPDPETGTIPIKITITKEQYEKLKSAG [r14_602_JUSTAS] | -0.459 ± 0.064 | 0.034 ± 0.15 | 0.0517 ± 0.056
15 | SAGGKEWYIKVSIEHRNPNNGEKRELSITIPVEGMSAEEALDIARELARHLPPENVKIEVDIVPLDDSAGGS [r16_774_TrROS] | 1.78 ± 0.051 | 1.86 ± 0.17 | 2.08 ± 0.032
16 | SAGGSAGPSSKPIPLYVLFLEVTKPGGEKLPLVKLVKSPEEALKIAEEIASKGYEVKLVLAPASEISAGGSA [r15_906_TrMRF] | 2.74 ± 0.081 | 2.88 ± 0.084 | 2.92 ± 0.07
17 | SAGGSAGGSAPVFTSPEEAEKYAREKLLREKPESHPDLVVNVNVTVTTEPDGTITIEIDYKESAGGSAGGSA [r18_440_JUSTAS] | 0.932 ± 0.092 | 1.29 ± 0.14 | 1.72 ± 0.086
18 | SAGKIEIVEVTKNYVKIKIKNKKTNKTIEIKIPVKKKKGKKLSKEELEELAKKLAKELYPDMKIEVEKVSAG [r5_293_TrROS_Hall] | 2.24 ± 0.091 | 3.31 ± 0.27 | 3.86 ± 0.086
19 | SGFKVYIPDADLDAAVAVAKALVEKGYDTLLVDSPEVLKAIKEAIPDVKVEPVPVLPPVPPLPGEAEALFSA [r9_639_TrMRF] | 0.71 ± 0.021 | 0.684 ± 0.076 | 0.573 ± 0.092
20 | SGMTIKILEVDFNPLGEEDEKATITLKAEIGGEEVELKIEVYRRPDGSAIAKITLILPGSGEPFEITADISA [r9_241_TrMRF] | 2.61 ± 0.11 | 3.91 ± 0.17 | 4.16 ± 0.13
21 | SAGGSVEEIAERLAKELAPPDERVEVEVEEIVTDPVVGKIKEVKIKATIYPPDGTTRTVEYTIPYDELSAGG [r13_215_JUSTAS] | 0.407 ± 0.029 | 0.612 ± 0.056 | 0.704 ± 0.028

Row | Sequence | folding stability dG unfold [1] [kcal/mol] | folding stability dG unfold [2] [kcal/mol] | folding stability dG unfold [3] [kcal/mol]
22 | SAGGSAGGPEVKILKVDPENNTITLALPVDNEILLLEIKIEPDPENPNSFKATIELKVFPYNEASAGGSAGG [r6_371_TrMRF] | 2.33 ± 0.28 | 2.8 ± 0.26 | 3.21 ± 0.096
23 | SAGGSAGGSWITPEWIEEIARYLARELGIDDVKIEVERRPDGYVTVEIRNPANGRKVEITVPWSAGGSAGGS [r12_1000_TrROS] | 3.38 ± 0.14 | 3.16 ± 0.19 | 3.06 ± 0.1
24 | SAGGDLIERVAKELMEKFPMKPGEPRPITIEIPYPDGYRIKVDIPVRVNPDNGEFRFKFDIKEIEPWSAGGS [r16_634_TrROS] | 1.02 ± 0.052 | 1.25 ± 0.13 | 1.43 ± 0.16
25 | SAGGSAGGSAGGMVVRVTKNGTSTEIIVDSEEEAKELLKPLFPDDSEVEIEFVSEEELSSAGGSAGGSAGGS [r10_1167_JUSTAS] | 0.0397 ± 0.07 | 0.718 ± 0.12 | 0.963 ± 0.065
26 | SAGGSAGGSAGGSKTKAELFKVGDKLILATYHPDTGKVEIFYPDNSVETLPAEEAEKLFSAGGSAGGSAGGS [r10_1140_TrMRF] | 1.02 ± 0.052 | 1.03 ± 0.14 | 0.957 ± 0.13
27 | SAGGGSDTVPPVPKATITFTLPAESPEEAEAAAEEIARELEEEGGIPATATVTTDPETGTVTVTITLESAGG [r13_517_TrMRF] | 0.971 ± 0.033 | 0.855 ± 0.069 | 0.672 ± 0.059
28 | SAGGSAGGSAGATISPDGYKIVVTNADGEKVTLTFDSLEEAKAALEALLPPGARVFIEKVSAGGSAGGSAGG [r11_983_TrROS_Hall] | 0.529 ± 0.035 | 1.61 ± 0.031 | 2.009 ± 0.011
29 | KLKFKVKIKNPKTNETVEVEVELNEDGTVTVKVNGKLIAKFKIVAKPKPKVETKKVKDANGNEKTYKKVKFS [r1_496_TrROS_Hall] | 1.15 ± 0.12 | 1.91 ± 0.41 | 2.41 ± 0.27
30 | SAGGSAGGSPPPDIKVEVESYENPDGQRYYRVTITIDDGRPFDIWMPPGMSPSEAKNWLKDLLSAGGSAGGS [r12_1019_TrROS] | 3.35 ± 0.08 | 3.78 ± 0.094 | 3.964 ± 0.035
31 | KKKKKKKKKKKKKEKVKVRIRIRLKVKDKETGEWKEIEVEIEIEMSKEEAEEIAKKLAEKYNFEIVEIEIES [r1_488_TrROS_Hall] | 2.95 ± 0.079 | 3.28 ± 0.21 | 3.46 ± 0.19
32 | SAGGSAAVDLSERPPALPVPLKVEVIPIPETGSSLVLVTHPDGFVLLARVNPEGEVELLSAFSLDDSAGGSA [r15_790_TrMRF] | 1.56 ± 0.066 | 2.51 ± 0.14 | 2.86 ± 0.074
33 | SAGGSAGGSELPVESIETETYEDPSTGVKTVREKYPGGYVVTKTLYVPPDGPPIELPVEVRPESAGGSAGGS [r12_111_JUSTAS] | -0.0484 ± 0.17 | 0.425 ± 0.23 | 0.63 ± 0.083
34 | SAGGKTLVITVEAPPEDWDKILELAREALELGGDVVVVAPFPDGLTVTVRAEKPLGKIVEVTVAPDDASAGG [r13_873_TrMRF] | 0.578 ± 0.053 | 1.15 ± 0.095 | 1.5 ± 0.071
35 | SAGGSAGGSAGGLKDALENGYVMIDFEIYNPPNGEPIGEITIMVKVPKPEPDEDGNWQLVSAGGSAGGSAGG [r7_959_TrROS] | 1.34 ± 0.086 | 1.26 ± 0.16 | 0.941 ± 0.06
36 | SAGGSAGGSMKKIKIEVYNKDGSKTELPLSEILKLYDFDAEEIKKFLEKLFPKDVKFKIEIEGSAGGSAGGS [r12_399_TrMRF] | 1.33 ± 0.061 | 2.31 ± 0.17 | 2.53 ± 0.05
37 | SAGGSAKVVEIELVEVRRNANGERIVRVRIKLPNGEERTIEMSEEELKELLAKLPPNVEIVAIEEVSAGGSA [r15_339_TrROS_Hall] | 1.42 ± 0.077 | 1.56 ± 0.15 | 1.76 ± 0.043
38 | SAGGSAGGSAGDEWITIWFLFPSPEQAKDIADPLASNGLNIDVETHRMPDGNYWVNITIPSAGGSAGGSAGG [r11_677_TrROS] | 2.21 ± 0.092 | 2.9 ± 0.11 | 3.34 ± 0.089
39 | SAGGSAGGAANIPADQTLEFPTPDGYRRRLTYYPDEGLLVAEYVNPADGTPTFYTFDIPPDSTLSAGGSAGG [r6_406_TrMRF] | 0.864 ± 0.048 | 1.21 ± 0.057 | 1.43 ± 0.084
40 | SMKSKIEVKTVTFTFSPDDPLAKTPLEEIISEKAKKEGKKIEIPSYSYTSTDPAKGTKTYTFTVKIIKEESA [r9_107_JUSTAS] | 0.122 ± 0.16 | 0.534 ± 0.14 | 0.797 ± 0.21
41 | SAKEIASGTFLLDNGATLTVTSIKYDPETGKVSIPVELTVYVPKIDPNDPNKPTIEPFTFKITFTFKVDSAG [r14_888_TrMRF] | 2.51 ± 0.073 | 3.34 ± 0.087 | 3.78 ± 0.026
42 | SAGGFIVVPIKAKSLEEALEKAREIAAALGIPGTLEDPRVDLDDFLKNYKPDTEVRVYVRHPDGVIDELSAG [r5_503_TrMRF] | 1.23 ± 0.033 | 0.878 ± 0.11 | 0.223 ± 0.21
